Laboratory results published in patent publication US20140170168A1 (published 2014).

B4: Fab 2C3 (Fab, V domains shown)
VH: QVQLVQSGGGVVQPGRSLRLSCAASGFTFSSYAMHWVRQAPGKGLEWVAVISYDGSNKYYADSVKGRFTISRDNSKNTLYLQMNSLRAEDTAVYYCARDRSFWSGYYIINYYYYGMDVWGQGTTVTVSS
VL: DVVMTQSPLSLPVTPGEPASISCRSSQSLLHSDGNNYLDWYLQKPGQSPQLLIYLGSNRASGVPDRFSGSGSGTDFTLKISRVEPEDVGVYYCMQALHIPLTFGQGTRLEIKR
notes: also called 2C3 Fab
B5: RTL1000 (two-domain β1α1 HLA-DR2 with covalently linked human MOG-35-55 peptide) (peptide-MHC)
chain: MEVGWYRPPFSRVVHLYRNGKGGGGSLVPRGSGGGGPRFLWQPKRECHFFNGTERVRFLDRYFYNQEESVRFDSDVGEFRAVTELGRPDAEYWNSQKDILEQARAAVDTYCRHNYGVVESFTVQRRVIKEEHDIDQDEDYDNPDQSGEFMFDFDGDEIFHVDMAKKETVWRLEEFGRFASFEAQGALANIAVDKANLEIMTKRSNYTPITNGGGGSGGGGSGGGGSGGGGSLHHILDAQKMVWNHR
notes: also called RTL1000-BirA; DR2/MOG-35-55
B6: Fab 2E4 (Fab, V domains shown)
VH: EVQLVESGAEVKKPGASVKVSCKASGYTFTSYYMHWVRQAPGQGLEWMGIINPSGGSTSYAQKFQGRVTMTRDTSTSTVYMELSSLRSEDTAVYYCAREGDNYYGDAFDIWGQGTMVTVSS
VL: EIVLTQSPATLSLSPGERATLSCRASQSVSSYLAWYQQKPGQAPRLLIYDASNRATGIPARFSGSGSGTDFTLTISSLEPEDFAVYYCQQRSNWPPSYTFGQGTKLEIKR
notes: also called 2E4 Fab; anti-RTL1000 TCRL Fab

How the values were obtained:
[1] = target: T1, RTL2010 (two-domain β1α1 HLA-DR4 with covalently linked GAD-555-567 peptide) (human); test: ELISA on immobilised RTL and four-domain complex (FIG. 8C)
T1 construct: also called RTL2010-BirA
T1 chain: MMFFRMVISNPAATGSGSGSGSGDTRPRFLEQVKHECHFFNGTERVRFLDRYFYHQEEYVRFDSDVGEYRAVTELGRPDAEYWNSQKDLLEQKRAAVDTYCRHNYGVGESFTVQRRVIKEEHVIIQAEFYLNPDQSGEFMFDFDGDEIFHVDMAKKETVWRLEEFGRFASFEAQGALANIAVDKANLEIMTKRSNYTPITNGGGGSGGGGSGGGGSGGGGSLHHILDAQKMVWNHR

[2] = target: T2, RTL302 (empty DR2 RTL) loaded with free MOG-35-55 peptide (human); test: sandwich ELISA: plate coated with purified Fab, loaded or empty RTL302 added, detection with mAb TU39
T2 construct: also called empty β1α1DR2-RTL loaded with MOG-35-55 peptide; MOG-35-55 loaded empty RTL302
T2 chain: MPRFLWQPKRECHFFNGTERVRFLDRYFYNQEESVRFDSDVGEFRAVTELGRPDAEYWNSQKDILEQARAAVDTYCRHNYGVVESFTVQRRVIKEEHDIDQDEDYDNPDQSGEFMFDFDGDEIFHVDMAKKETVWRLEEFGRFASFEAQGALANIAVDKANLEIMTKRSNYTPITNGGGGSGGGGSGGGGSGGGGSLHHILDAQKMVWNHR
T2 peptide: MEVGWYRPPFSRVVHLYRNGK

[3] = target: T3, RTL342m (two-domain β1α1 HLA-DR2 with mouse MOG-35-55 peptide) (mouse); test: ELISA, soluble Fab on immobilised RTL (FIG. 3A)
T3 construct: Differs from RTL1000 by the Pro to Ser change at position 42 of MOG; also called DR2/mMOG-35-55; β1α1DR2/mMOG-35-55
T3 chain: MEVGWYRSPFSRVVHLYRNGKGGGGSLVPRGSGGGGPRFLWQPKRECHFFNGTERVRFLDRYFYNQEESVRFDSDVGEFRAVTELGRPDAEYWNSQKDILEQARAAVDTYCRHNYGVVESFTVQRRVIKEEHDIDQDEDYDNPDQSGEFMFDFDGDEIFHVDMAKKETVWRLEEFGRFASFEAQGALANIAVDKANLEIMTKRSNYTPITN

[4] = target: B5; test: SPR (ProteOn XPR36), Fab captured by immobilised anti-Fab, RTL1000 injected at 62.5-1000 nM
[5] = target: T4, RTL302 (empty two-domain HLA-DR2 RTL) (human); test: ELISA, soluble purified Fab on immobilised biotinylated complex or peptide
T4 construct: Two-domain MHC class II without antigenic peptide; also called empty DR2; DR2 (empty)
T4 chain: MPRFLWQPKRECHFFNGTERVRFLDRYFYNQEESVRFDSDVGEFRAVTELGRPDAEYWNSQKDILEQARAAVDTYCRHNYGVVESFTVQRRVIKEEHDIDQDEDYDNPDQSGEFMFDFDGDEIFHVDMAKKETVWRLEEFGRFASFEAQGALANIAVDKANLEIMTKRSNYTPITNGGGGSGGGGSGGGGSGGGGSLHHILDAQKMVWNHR

[6] = target: T5, RTL340 (two-domain β1α1 HLA-DR2 with covalently linked MBP-85-99 peptide) (human); test: as above
T5 construct: also called RTL340-BirA; DR2/MBP-85-99
T5 chain: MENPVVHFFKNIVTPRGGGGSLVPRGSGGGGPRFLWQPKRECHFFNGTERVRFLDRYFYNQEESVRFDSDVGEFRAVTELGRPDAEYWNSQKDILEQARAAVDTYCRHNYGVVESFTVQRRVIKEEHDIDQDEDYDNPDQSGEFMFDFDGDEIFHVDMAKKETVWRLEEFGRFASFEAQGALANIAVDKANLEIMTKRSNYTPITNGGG

[7] = target: B4; test: competition ELISA: soluble competitor varied, binding of purified Fab 2C3 to immobilised RTL1000 read
[8] = target: B6; test: competition ELISA: soluble competitor varied, binding of purified Fab 2E4 to immobilised RTL1000 read
[9] = target: T6, RTL600 (empty two-domain HLA-DP2 RTL) (human); test: ELISA, purified Fab 1B11 on immobilised RTLs and four-domain complexes
T6 construct: also called DP2 (empty)
T6 chain: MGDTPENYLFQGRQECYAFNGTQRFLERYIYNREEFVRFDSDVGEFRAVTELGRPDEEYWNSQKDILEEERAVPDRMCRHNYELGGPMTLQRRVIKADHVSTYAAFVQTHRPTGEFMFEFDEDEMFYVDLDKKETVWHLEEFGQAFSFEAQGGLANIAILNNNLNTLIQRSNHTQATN

[10] = target: T1, RTL2010 (two-domain β1α1 HLA-DR4 with …); test: as above

B1: Fab D2 (Fab, V domains shown)
VH: EVQLVQSGAEVKKPGSSVKVSCKASGGTFSSYAISWVRQAPGQGLEWMGIINPSGGSTSYAQKFQGRVTITADKSTSTAYMELSSLRSEDTAVYYCARGGPTGIFDYWGQGTLVTVSS
VL: EIVLTQSPATLSLSPGERATLSCRASQSVSSYLAWYQQKPGQAPRLLIYDASNRATGIPARFSGSGSGTDFTLTISSLEPEDFAVYYCQQRSNWPLTFGGGTKVEIKR
notes: the heavy chain entry holds VH, CH1, connector, His tag and Myc tag; also called D2 Fab
- binding result [1]: binds

B2: Fab 3A3 (Fab, V domains shown)
VH: QVQLQESGGGLVKPGGSLRLSCAASGFTFSSYSMNWVRQAPGKGLEWVSSISSSSSYIYYADSVKGRFTISRDNAKNSLYLQMNSLRAEDTAVYYCARVRGHRYYYDSSGYYSSDYYYYYGMDVWGQGTTVTVSS
VL: DIQLTQSPSSVSASVGDRVTITCRASQVISSWLAWYQQKPGKAPKLLISTASSLQSGVPPRFSGSGSGTDFTLTITSLQPEDFATYYCQQANSFPLTFGQGTKVEIKR
notes: also called 3A3 Fab
- binding result [2]: binds
- fold reduction in binding to RTL342m compared to RTL1000 [3]: 5 fold
- Kd [4]: 58 nM
- binding result [5]: no binding (tested: 5 µg/ml Fab)
- binding result [6]: no binding (tested: 5 µg/ml Fab)

B3: Fab 1F11 (Fab, V domains shown)
VH: QLQLQESGPGLVKPSETLSLTCTVSGVSISSRSGHWGWVRQPPGKGLEWIGSISYSGSTYYNPSLKSRVTISVDTSKNQLSLKLSSVTAADTAVYYCARESHPAAALVGWGQGTLVTVSS
VL: ETTLTQSPGTLSLSPGERATLSCRASQSIINSHLAWYQQKPGQAPRLLIYGASSRATGIPDRFSGGGSGTDFTLTITRLETEDFALYFCQQYGTSPLTFGGGTRVETKR
notes: also called 1F11 Fab
- binding result [2]: binds
- fold reduction in binding to RTL342m compared to RTL1000 [3]: 5 fold
- Kd [4]: 60 nM
- binding result [5]: no binding (tested: 5 µg/ml Fab)
- binding result [6]: no binding (tested: 5 µg/ml Fab)

Binder: B4
- binding result [2]: binds
- Kd [4]: 153 nM
- binding result [5]: no binding (tested: 5 µg/ml Fab)
- binding result [6]: no binding (tested: 5 µg/ml Fab)

Binder: B5
- binding result [7]: binds
- binding result [8]: binds

Binder: B6
- binding result [2]: binds
- fold reduction in binding to RTL342m compared to RTL1000 [3]: 2 fold
- Kd [4]: 33 nM
- binding result [5]: no binding (tested: 5 µg/ml Fab)
- binding result [6]: no binding (tested: 5 µg/ml Fab)

B7: Fab 1B11 (Fab, V domains shown)
VH: EVQLVQSGAEVKKPGASVRVSCKASGYTFTSYGISWVRQAPGQGLEWMGWISAYNGNTNYAQKLQGRVTMTTDTSTSTAYMELRSLRSDDTAVYYCARDIRAYGSGSYSRYYYYGMDVWGQGTTVTVSS
VL: EIVLTQSPATLSVSPGERATLSCRASQNIGSILAWYQHKPGQAPRLLIYGASTRATGIPARFSGSGSGTEFTLTISSLQSDDFAVYYCQQYLYWPFTFGGGTKVEIKR
notes: also called 1B11 Fab
- binding result [9]: no binding (tested: 5 µg/ml Fab)
- binding result [10]: binds
- binding result [5]: binds

B8: Fab 3H5 (Fab, V domains shown)
VH: QVQLQESGPGLVKPSETLSLTCTVSGGSISGYYWSWIRQPPGKGLEWIGYIYYSGSTNYNPSLKSRVSISVDTSKNQFSLRLSSVTAADSAVYFCARDERDAYYYGMDVWGQGTTVTVSS
VL: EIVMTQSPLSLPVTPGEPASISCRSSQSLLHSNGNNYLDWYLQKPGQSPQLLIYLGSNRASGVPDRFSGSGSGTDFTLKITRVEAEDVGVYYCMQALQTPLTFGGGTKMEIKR
notes: also called 3H5 Fab
- binding result [2]: binds
- Kd [4]: 129 nM
- binding result [5]: no binding (tested: 5 µg/ml Fab)
- binding result [6]: no binding (tested: 5 µg/ml Fab)
